Values quoted from earlier work in PMC9092467.

Tests used:
[1] = molecular target: His83 (UniProt position 83, FNEPAHTLYGQ); assay: NMR
[2] = molecular target: His32 (UniProt position 32, FGDVNHTNGNV); assay: NMR
[3] = apoprotein (no haem or haem analogue bound)
[4] = holoprotein with gallium protoporphyrin IX, Ga(PPIX), bound

Haem acquisition system protein A (hemophore HasA) (Serratia marcescens)
pKa [1, 3]: 5.6 | pKa [1, 4]: 9.7 | pKa [2, 3]: 7.3 | pKa [2, 4]: <4.8
